# In paper PMC8257933:
# B1: NTCP wild type, NTCP-FLAG and NTCP-V5-His expressed in HEK293 cells [human] / NTCP wild type, NTCP-FLAG and NTCP-V5-His expressed in HEK293 cells [human] (parent)
# chain 1: MEAHNASAPFNFTLPPNFGKRPTDLALSVILVFMLFFIMLSLGCTMEFSKIKAHLWKPKGLAIALVAQYGIMPLTAFVLGKVFRLKNIEALAILVCGCSPGGNLSNVFSLAMKGDMNLSIVMTTCSTFCALGMMPLLLYIYSRGIYDGDLKDKVPYKGIVISLVLVLIPCTIGIVLKSKRPQYMRYVIKGGMIIILLCSVAVTVLSAINVGKSIMFAMTPLLIATSSLMPFIGFLLGYVLSALFCLNGRCRRTVSMETGCQNVQLCSTILNVAFPPEVIGPLFFFPLLYMIFQLGEGLLLIAIFWCYEKFKTPKDKTKMIYTAATTEETIPGALGNGTYKGEDCSPCTA
# chain 2: B1 chain 1
# Variants of: B1
# Assay: co-IP (IP anti-FLAG agarose, western blot anti-V5, ImageJ band quantification)
# Settings: with NTCP wild type, HEK293 cells co-transfected with NTCP-FLAG and NTCP-V5-His, n = 3 independent experiments, parent: 100, read off a plot
row,Variant,percent of parent
1,chain 1 G233L G237L,130 % of control
2,chain 1 G60L A64L,110 % of control
3,chain 1 G60L A64L G233L G237L,160 % of control
